The DeepSol protein solubility set

assay: soluble on expression in E. coli; label from the status in PepcDB or PDB records

Sequence | soluble on expression in E. coli
MAHHHHHHMFPASGSGPGVAGSALKGFKGMHHKPPNYPYPYVVGVDGAGEVESVGRKVTGLKAGDRVMFHSSLTNAHGGSLCEYAVMEESVAVPIPADGARPFSYEEAAAIPCATWTAYVALFDKLRIEPGRSIFVDGASGAVGSCAVQLAHHMGLYVFASCSPSNADYVRSIGADQVLNYHDGIEMVDQILDATEGYGVDYYLAVTNTQDAESFTDALRFGGAVCLLSGVLIPNSNVLFRRQLSVHYVFLNGLHGHPLTRPQLRYIGDQVAKLYQSGAFRLDVEVLPFAEAAKALDRSATGNVNHKKLIVQVASP | not soluble
GPGSMSSCTHPTSALFVDRQNGRTTCTICGDVVTTDQYELDPIFAQGGRQPASGGGLRGLAGSFRPATSYKGTHTGVIHSHSRPTIDKARREMLNISRQLEISEDTVERALGIYKVALNLNAVSGTRPSVLCACLYAACRRERTSHVIYDFSEINGEDPHTILSQMKYICHATHTEVPVIDPSCYVQRFAEQMDLGPQTTDVVVCALKVLRAMQDDWISCGRRPMGVCAAALLVACYVFGISRTPEQVCGMVRLTSNTIGKRLTEFAATPTARLENIDDYQPSHETLPPAFNDSSRKSTEEDVHASMRELSAIFYELVSEAKTSQPATPERCDKWRRFIMKHCELEGITPLEENLDLKGLPPAQQLHILGLPHTKPIPLEEVARSVKREEHRLLVKREASLQNGSDAGGSMSGARQGAVAGLLNNADVSSNGIPLYLLPDESLASSLAQASPAMGYADDGGMHSSSAAVGAASMDSPEQLRWMTDEYTRLLNSNAEVMHLRNDFDFADEDDANGAGGSSGGGAVAPPVSHPTQNQPFSCGLSQLRGGSPPPGTPAEEDPFGFFDRDDEGTRLALEEILYDRERRHALPWEFLVLPRVEEDDCTDILSYLVLDNEERLRRERIGVSLYGEKWKRGRARTDEEIQKLEEARASKRRRRSVIAEPAVDVPTAMERALRGRGAGTVNISQIGELLPGMLEFLEDEPQADWD | not soluble
MYVNKQEIIKNIQKLSPKSPAEYIEKDGCFMLTCPENTYPSFFSQFQYSEIPPPGNLIPQNALEISPPTSLEEMGGASLSEYFGIICDDGVWKLTKYPNGITFNKDPPSYTNGSLNGYKTEIFTMNCY | not soluble
ARLRAGFEAAGAQGVETPILQPAETLLDLYGEDIRARAYVTSDALRGEQMLRPDFTVPVVQKHMEHGAEPARYTYAGEVFRRQEHDPDRANEYIQVGYEVFDRTNPAAADAEVFALIAQALDGLALRAATGDIGILMAAVEGLKTTEPRKAALMRHIWRPRRFRALLDRYAGRTTVPPARAALLAESEPLADGAPEIGKRSRAEVEARIEVLRADAAAAPISDNEMAGLDALLSVRETMPYALEHLRDIAVDLPQITPALDRLEARIAALRARGINVDRLDFEASYGRTSMEYYDGFVFGFYAERRPDLPPIATGGRYDALTRRLGNGAEIPAVGGVLRPGLMLLLAEAE | not soluble
MGSDKIHHHHHHMMKTDYVFCVDSDGCAMDTMTYKHKLFFGPLAADVFDVKDREPFLAEWNRVNLYSRERGINRFVGLVKGLDFAGVTGIDNLKNWVATTDSLSNASLERLIEETPSKDLELALEWSTQVNQAIKHYSGPVLAFIGVHKGLEKLSQLGKVYVVSSANKEAVEEEWTDQGLLDFVTELYCQDRGKKEDVIKILIEEGYCPDKIMMIGDSPGDLKAAELNGVHFYPILVGQEMQSWADLTETIADEFAHQAFTGEKETELIQAFWNNLDD | not soluble
MGIPKEGEFVTIQSYKHDGHLHRTWRDTMVLKTSEYSLIGVNDHTLVTESDGRRWVTREPAIVYFHKKYWFNIIAMIREKGVSYYCNLASPYVLDDEALKYIDYDLDIKVFPDGEKRLLDVDEYEFHSKLMDYPEDIDFILKENVKTLVDWINNEKGPFSPEYVDIWYQRYQQLSKK | not soluble
MAETEILKCIGCGAPLQSEDLDAPGYVPESSLYKEDVICKRCFRLKNYNEVQDVGLDSEDFLNLLNGLADKKGIVVNVVDVFDFEGSFINAIKRIVGNKQIILVGNKLDLLPKQINKRRVKEWLKKTARKYGLDAEDVILISAEKNEGIEDLLNAINTLRNNDDVYIVGTTNVGKSTLINKLIERSVGEKNVVTTSRFPGTTLDMIDIPLDDTSFMYDTPGVIQEHQMTHYVTEKELKTIMPKKEVKQRVYQLNEGQTLFFGGLARIDYISGGKRPLVCYFSNDLNIHRTKTENANELWRNQLGDVLSPPNNPDHFDLQNVKAVRLETGKEKRDVMISGLGFITIDEGAKIIVRVPKNVDVVLRNSIMLEHHHHHH | not soluble
LGLWPVHRLSEEARRISPRQLSQRLQLSPLPAELRELVGAFNGALDRLEQAYVRLESFNADVAHELRTPLTNLIGQTQVALSRERSGEHYEEVLQSNLEELERLRAIVNDMLFLARADQGRLACEREETSLAGEIATTVDFLEVIFDEAGVGIEVRGEARALVERALFQRAVTNLLYNAAQHTAAGGTLRVGVERRGDEVRVAVSNPGVPIADEHRRHLFERFYRVDAARSNSEANHGLGLSIVKAVASMHGGSVFVDSADGWNTFGFTVLSPERRGPGDR | not soluble
MNVGYLCTYTPKELIDAAGFTPIRIFAGDMQISLATAHIQSYACSQARGSLERALRGELDVQAVVFTRCCDTLMRLADIWERNTDMRVYNIEFPTRVEERSKDYYFNELKDFVKVLEEWGGGVTLESLRESLKLYHELEEKLKRLFSLKPDYEAAKRVQEMNVREAIKFVDERLRKAESEGGKPRVLITGSVCPFVEVYTLFEEAGFALKDDICTGTRFFTFNTPPREIGSVDEGLRFLVDKYFEKAPCPTKHFPNDDRFKYILEMAKDCDGVVFLLLKFCEPHFYDYPQLKERLEEMGKKVLLLELEFPIASIEQLRTRIEAFYEVIA | not soluble
MVMSKYTQEQIKNLVEGNLDWNTVLKMLSMPKDHERFQMYLKVLQDKVDFDDKIVLPLGPHLFVVQDAQKKWVIKCSCGHAFCAPEENWKLHANIYVRDTAEKMEEVYPKLLASDTHWQVYREYICPDCGILLDVEAPTPWYPVIHDFEPDIEVFYKDWLGIQPPERR | not soluble
MGSDKIHHHHHHMSKNIKTPTNQKVLTNVAVVRMKKTGKRFEIACYKNKVVNWRNKSEKDIDEVLQTHTVFSNVSKGQLSKKEELIAAFGIEDQLEIYSRQRRLASVGKRASGGFRSIAERGSFFLLKNVSQLIASMVVNPETKRPVPPSVIDKALQEMHFSLKPNRSSKQQALDAIPKLRETLKIERAKMKIRVAIPTKEAKSVHTKLKTLFSDVEVDDWQDGSLEMVGLIEPGSFRALDDLVRNETKGHGRLEILSLKDVVEGELQIS | not soluble
MAANFWNSSHYKQLLDPEEVDVVHDLDKERGISIDDFKLIKFHMSNHIMKLAQHIKVRQRVVATAITYMRRVYIRKSMVEFEPRLVALTCLYLASKAEESIVQARNLVFYIKRLYPDEYNKYELKDILGMEMKVLEALDYYLVVFHPYRSLSEFLQDAALNDVNMNQITWGIVNDTYKMDLILVHPPYRIALACIYIASVHREKDITAWFEDLHEDMNLVKNIAMEILDFYENYRTITEEKVNSAFSKLALKL | soluble
MGSDKIHHHHHHMAKRSIAYLDSVFDISYTFIDHHSPLNALFLHGWGSSKEIMQQAFQGCFLNYNHLYVDLPGFNQSPNDEKVLETKDYANIINLFLKSVGKKAHVVFGHSFGGKVAILCENERMVLLSSAGILEPKPLKVRCKILLAKIFKKLGLNLGFLRSKDAMGLNQAMYETFKKVISEDFSDHFKRCEKEVLLFWGKDDKATPLSSAQKMQTLLKRSVLFVLEGDHFFFLNQAKEIEKLVENYHHAKS | not soluble
MGSDKIHHHHHHMIRPSLAHTIISEVRKLLDEDLIVVDPSGTIIASTDKERMGSFHEGALISYNERRRLIITQDDESKLTGVKAGINLPIFFQDQVVGVIGITGDPSKVSAYGELLRKMTELLIKEKYYAEQLEWHARTLEAFVFDWVQQKEWTRSFINQAKMLHIDLTVSRQVIIGYYGQHNRERIQREWWIDVSQTFTRQKDDLLVRWGNDRFVMLLANKAEGKERAVHSIQQIQKYIQNKYRHSLSFGVGQSVCPQELYRSFEQAERALAVAVRTQSIVFEEDLRLDMCLQDVKKQTRVDFVQRTLEPIMKDEDLLETLKTFIARNQSFKETAETLHIHINTLHYRLKKMEDKTGLNPRDFHDLTTLYLGLLFLEDNLKN | not soluble
MGSDKIHHHHHHMQWLTFQWLEFIREYREKAKHNLSNSGMPEPDLKSLGIDTSYEHYLDAAGEVEYRFTEALSRRLRVDQDLIIPTVGGTEAIFIALSHLSSVSKRIHVPLPEYEPMFLVPESLGIETSKIESKVMPGRISKNESIAMTLPNNPTAQYSDRISLLDNVIHSEGLIYIDETFRDFLPSGTRPTLFDGSETMVVSGTMTKFYGLSNLRTGWIISSEHNVAGMRRIKDLTSINNASFSLYIAAQAIQKWNYFKEAEDNLINKNLRVAREYLEGLPGISYKEPEGAPFIFLSYSKNIESVKLAKLAVERYGILFAPGSFFGEEHHIRVCLTSNKPEEDFNVLKEFLKKEAV | not soluble
MGSDKIHHHHHHMKASVIIPAYNSKERLYNSLLSLNQQECDEEFEVIVADNGSEDGTLSMLESFQADFPLIFTRIKENRGIAYGRNQALRNARGDILIFHDSDMLAAKDLVAKHIKAHENEENLVVCGLFWKRIYSFYYERFEEEHKEQLAKLTGEMPKKDKQKLLEEADIKNGSFLDKSFDLDTDFIDVLKKILDEYGDDLKGYHMPWRFFITNNSSVKRKHVVDLGLFDEGIVRYGFEDYDLGIRLHQAGLTFRLRRDIVSVHQEHPSNCKSVDDIRANIAYMCDKYNNIRSLDVHLAFNGPFPPDMTNRIMADIQKLLESQKYDMLLNLFLELLHVVKERNIDPDWRKKSPRVTAKSFDLQTVRKLLPKAKKKLGVNDFANALYALVNDLLHVDLRSLDVV | not soluble
MSLAASKGNLLSPDRILTVAHRGASGYVPEHTILSYETAQKMKADFIELDLQMTKDGKLIVMHDEKLDRTTNGMGWVKDHTLADIKKLDAGSWFNEAYPEKAKPQYVGLKVPTLEEVLDRFGKHANYYIETKSPDTYPGMEEKLIASLQKHKLLGKHSKPGQVIIQSFSKESLVKVHQLQPNLPTVQLLEAKQMASMTDAALEEIKTYAVGAGPDYKALNQENVRMIRSHGLLLHPYTVNNEADMHRLLDWGVTGVFTNYPDLFHKVKKGYEGHHHHHH | soluble
MGSDKIHHHHHHMKSCLYFTFIVLFLTACSTKNLTSLHRENLEQKNENQHYVKLEYEQNVNILPQFAYDINFDAKRYKKYFFNPWHDSFKNYKGQNIFWSFPLYLNSKNTYYFFNKQIIPLSWFKNAINNANIQEFGKLNQKALIIQNTIIKNLPTQRAILKNPFFENEGIPFDYASDGILNTGAPVLISHFSKDKRYAFVLGEAGFGFVESKNLEFFSNDRAKIYENLNFITPLKEKFAIYSEDGKFLFESRIGAIYPYYKEDKNYFYGKIGSKKYKISKKDVSKFPLQFNDKNLKNQLSQVLNLPYGWGGYNFERDCSLLTRDIFSAFGLYLPRNSAAQKNSFNHFDISTLSNSQKKDFLNRFGKAYLSLLYLPGHIMLYAGQITDNNIAIHNIWGLRKDATQRLLISSSVITSLEIGKNEILEDNLLLSRLKEISFINLNEQEKEQIKSYLENIQNK | not soluble
MGSDKIHHHHHHMGESASGSDRSQKARGAFRVRSLQIRYKTSRPEIRQSWRSMLQRERPCKGGREDFEKGRRGNFSSPLRSVSLQGDCRTQLRSGKEALQFRETRRHTEQGGITMKVVVGIPSYNNAETISHVARTAAQGIVDFFDGDGMIVNSDGGSADGTRERFMETDTFGLPKESFVYEGLPGKGSAMRAIMEFALKQDAEAVVFLDADLRSVKPWWVERLAGPVLKGEADYVTPFYLRHRFDGTITNNVCFPMTAVLYGKKVRQPIGGDFGVGRKLLEIYLGKPKEIWNTDVARFGIDIWMTTTAINESGRVVQAALGTKVHDVKDPGKHLKGMFLQVVGTLFELVITYENVWKEIWKIEDVPIYGETPQEEVPSMSIDIGNLKKLARETLEEVEYIDRGILSEVKESGTLSLSSWVDTLYRSAVQYRKTRDKKVVENLLPFYFARTARFAEEVKSLSDEEAERYVYEQLDVFLEKKHSLREEWKVEDKR | not soluble
